From patent publication US20100317598A1 (University of California, published 2010)

B1: HA-tag-BRCA1 (772-1292) (other, not shown: small tags and cut ends)
chain: VPGTDYGTQESISLLEVSTLGKAKTEPNKCVSQCAAFENPKGLIHGCSKDNRNDTEGFKYPLGHEVNHSRETSIEMEESELDAQYLQNTFKVSKRQSFAPFSNPGNAEEECATFSAHSGSLKKQSPKVTFECEQKEENQGKNESNIKPVQTVNITAGFPVVGQKDKPVDNAKCSIKGGSRFCLSSQFRGNETGLITPNKHGLLQNPYRIPPLFPIKSFVKTKCKKNLLEENFEEHSMSPEREMGNENIPSTVSTISRNNIRENVFKEASSSNINEVGSSTNEVGSSINEIGSSDENIQAELGRNRGPKLNAMLRLGVLQPEVYKQSLPGSNCKHPEIKKQEYEEVVQTVNTDFSPYLISDNLEQPMGSSHASQVCSETPDDLLDDGEIKEDTSFAENDIKESSAVFSKSVQKGELSRSPSPFTHTHLAQGYRRGAKKLESSEENLSSEDEELPCFQHLLFGKVNNIPSQSTRHSTVATECLSKNTEENLLSLKNSLNDCSNQVILAKASQEHHLSEETKCS
B2: APAF-1 (other, human, UniProt O14727 1-1248, looked up)
chain: MDAKARNCLLQHREALEKDIKTSYIMDHMISDGFLTISEEEKVRNEPTQQQRAAMLIKMILKKDNDSYVSFYNALLHEGYKDLAALLHDGIPVVSSSSGKDSVSGITSYVRTVLCEGGVPQRPVVFVTRKKLVNAIQQKLSKLKGEPGWVTIHGMAGCGKSVLAAEAVRDHSLLEGCFPGGVHWVSVGKQDKSGLLMKLQNLCTRLDQDESFSQRLPLNIEEAKDRLRILMLRKHPRSLLILDDVWDSWVLKAFDSQCQILLTTRDKSVTDSVMGPKYVVPVESSLGKEKGLEILSLFVNMKKADLPEQAHSIIKECKGSPLVVSLIGALLRDFPNRWEYYLKQLQNKQFKRIRKSSSYDYEALDEAMSISVEMLREDIKDYYTDLSILQKDVKVPTKVLCILWDMETEEVEDILQEFVNKSLLFCDRNGKSFRYYLHDLQVDFLTEKNCSQLQDLHKKIITQFQRYHQPHTLSPDQEDCMYWYNFLAYHMASAKMHKELCALMFSLDWIKAKTELVGPAHLIHEFVEYRHILDEKDCAVSENFQEFLSLNGHLLGRQPFPNIVQLGLCEPETSEVYQQAKLQAKQEVDNGMLYLEWINKKNITNLSRLVVRPHTDAVYHACFSEDGQRIASCGADKTLQVFKAETGEKLLEIKAHEDEVLCCAFSTDDRFIATCSVDKKVKIWNSMTGELVHTYDEHSEQVNCCHFTNSSHHLLLATGSSDCFLKLWDLNQKECRNTMFGHTNSVNHCRFSPDDKLLASCSADGTLKLWDATSANERKSINVKQFFLNLEDPQEDMEVIVKCCSWSADGARIMVAAKNKIFLFDIHTSGLLGEIHTGHHSTIQYCDFSPQNHLAVVALSQYCVELWNTDSRSKVADCRGHLSWVHGVMFSPDGSSFLTSSDDQTIRLWETKKVCKNSAVMLKQEVDVVFQENEVMVLAVDHIRRLQLINGRTGQIDYLTEAQVSCCCLSPHLQYIAFGDENGAIEILELVNNRIFQSRFQHKKTVWHIQFTADEKTLISSSDDAEIQVWNWQLDKCIFLRGHQETVKDFRLLKNSRLLSWSFDGTVKVWNIITGNKEKDFVCHQGTVLSCDISHDATKFSSTSADKTAKIWSFDLLLPLHELRGHNGCVRCSAFSVDSTLLATGDDNGEIRIWNVSNGELLHLCAPLSEEGAATHGGWVTDLCFSPDGKMLISAGGYIKWWNVVTGESSQTFYTNGTNLKKIHVSPDFKTYVTVDNLGILYILQTLE

What was measured:
p53 = p53 (human, UniProt P04637 1-393); experiment: cell-based or functional assay
cytochrome C = cytochrome C (human, UniProt P99999 2-105); experiment: immunopurification of cytochrome C from transfected HBL-100 cells, quantified immunoblot for APAF-1
Sequence of cytochrome C (P99999 2-105 limits assumed): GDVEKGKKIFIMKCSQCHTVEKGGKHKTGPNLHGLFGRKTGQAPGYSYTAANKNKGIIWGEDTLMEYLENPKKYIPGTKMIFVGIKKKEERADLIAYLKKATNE
Description: Immunoblots were quantified using a Kodak 4000 Imaging Station and software. […] Values were obtained from three independent experiments.
HBL-100 and MCF-7 cells were exposed to UV light (6,600 microwatt seconds per square centimeter), or treated with adriamycin (0.2 μg ml⁻¹) for 24 h. […] Immunoblots shown were quantified on a Kodak 4000 Imaging Station and software.

Sequence of p53 (P04637 whole entry): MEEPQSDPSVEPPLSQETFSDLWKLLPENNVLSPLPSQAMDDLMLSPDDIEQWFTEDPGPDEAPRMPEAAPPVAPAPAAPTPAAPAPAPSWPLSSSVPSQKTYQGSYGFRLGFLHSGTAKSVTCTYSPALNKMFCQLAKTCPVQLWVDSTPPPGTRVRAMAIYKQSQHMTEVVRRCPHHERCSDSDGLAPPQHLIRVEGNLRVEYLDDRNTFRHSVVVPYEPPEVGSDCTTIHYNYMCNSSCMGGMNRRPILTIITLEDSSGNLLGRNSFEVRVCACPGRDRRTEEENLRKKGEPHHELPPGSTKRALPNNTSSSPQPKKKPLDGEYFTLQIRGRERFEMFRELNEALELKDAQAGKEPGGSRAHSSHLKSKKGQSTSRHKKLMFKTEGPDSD

Row | Binder | expression of p21 (immunoblot of immunopurified p21), HBL-100 cells (p53) | percentage of cells in apoptosis (annexin-V-FITC binding), HBL-100 cells (p53) | fold increase of APAF-1 associated to cytochrome C (cells expressing BRCA1 (772-1292) against cells expressing control BRCA1 wt or BRCA1 (772-1036)) (cytochrome C)
1 | B1 | 5 fold | > 10 fold | 
2 | B2 |  |  | 3 fold
